Specificity ELISA, fold over background (fold over background) and specificity ELISA, percent binding relative to Acro S1 data for 7 molecules are collected here from patent US20210395344A1.

The chains are these.
B1: SARS-CoV-2 variant 1-31 (antibody, V domains shown)
VH: EVQLLESGGGLVQPGGSLRLSCAASGFTFSSYAMNWVRQAPGKGLEWVSAISGSGGSTFYADSVKGRFTISRDNSKNTLYLQMNSLRAEDTAVYYCTRPPYGDYGDYWGQGTLVTVSS
VL: QSALTQPASVSGSPGQSITISCTGTSSDVGKYNLVSWYQQHPGKAPKLMIYEGSQRPSGVSNRFSGSKSGNTASLTISGLQAEDEADYYCCSYAGSRTPVVFGGGTKLTVL
B2: SARS-CoV-2 variant 1-3 (antibody, V domains shown)
VH: EVQLLESGGGLVQPGGSLRLSCAASGFTFSSQAMSWVRQAPGKGLEWVSAISGSGGGTYYADSVKGRFTISRDNSKNTLYLQMNSLRAEDTAVYYCAKDRRFGEFDPWGQGTLVTVSS
VL: QSALTQPASVSGSPGQSITISCTGISSDVGSYNLVSWYQQHPGKAPKLMIYEGTKRPSGVSNRFSGSKSGNTASLTISGLQAEDEADYYCCSYAGSSSFVVFGGGTKLTVL
B3: SARS-CoV-2 variant 1-32 (antibody, V domains shown)
VH: EVQLLESGGGLVQPGGSLRLSCAASGFTFSSYAMYWVRQAPGKGLEWVSAISGSGGSTFYADSVKGRFTISRDNSKNTLYLQMNSLRAEDTAVYYCTRPPYGDYGDYWGQGTLVTVSS
VL: QSALTQPASVSGSPGQSITISCTGTSSDVGGYNLVSWYQQHPGKAPKLMIYEGNKRPSGVSNRFSGSKSGNTASLTISGLQAEDEADYYCCSYAGSSTFPVVFGGGTKLTVL
B4: SARS-CoV-2 variant 1-4 (antibody, V domains shown)
VH: EVQLLESGGGLVQPGGSLRLSCAASGFTFSSQAMSWVRQAPGKGLEWVSAISGSGGGTYYADSVKGRFTISRDNSKNTLYLQMNSLRAEDTAVYYCAKDRRFGEFDPWGQGTLVTVSS
VL: QSALTQPASVSGSPGQSITISCTGTSSDVGTYNLVSWYQQHPGKAPKLMIYEGSQRPSGVSNRFSGSKSGNTASLTISGLQAEDEADYYCCSYAGSSSFVVFGGGTKLTVL
B5: SARS-CoV-2 variant 1-5 (antibody, V domains shown)
VH: EVQLLESGGGLVQPGGSLRLSCAASGFTFSSQAMSWVRQAPGKGLEWVSAISGSGGGTYYADSVKGRFTISRDNSKNTLYLQMNSLRAEDTAVYYCAKDRRFGEFDPWGQGTLVTVSS
VL: QSALTQPASVSGSPGQSITISCTGTSSGVGSYNLVSWYQQHPGKAPKLMIYEASKRPSGVSNRFSGSKSGNTASLTISGLQAEDEADYYCCSYAGSYTFAVFGGGTKLTVL
B6: SARS-CoV-2 variant 1-28 (antibody, V domains shown)
VH: EVQLLESGGGLVQPGGSLRLSCAASGFTFSSYGMSWVRQAPGKGLEWVSAISGSGGGTYYADSVKGRFTISRDNSKNTLYLQMNSLRAEDTAVYYCASSSSWQFDYWGQGTLVTVSS
VL: QSALTQPASVSGSPGQSITISCTGTSSGVGSYNLVSWYQQHPGKAPKLMIYEGSQRPSGVSNRFSGSKSGNTASLTISGLQAEDEADYYCCSYAGSSTHYVFGGGTKLTVL
B7: SARS-CoV-2 variant 1-30 (antibody, V domains shown)
VH: EVQLLESGGGLVQPGGSLRLSCAASGFTFSSYAMTWVRQAPGKGLEWVSAISGSGGSTFYADSVKGRFTISRDNSKNTLYLQMNSLRAEDTAVYYCTRPPYGDYGDYWGQGTLVTVSS
VL: QSALTQPASVSGSPGQSITISCTGTSRDVGSYNLVSWYQQHPGKAPKLMIYEGTKRPSGVSNRFSGSKSGNTASLTISGLQAEDEADYYCCSYAGSRTPVVFGGGTKLTVL

The target of the assay is COVID S1 RBD Fc fusion (Antigen 1) (SARS-CoV-2), P0DTC2. Briefly: phage ELISA. The following applies: remark: other sources report otherwise. Background: An ELISA detects its analyte on a solid surface through an enzyme-linked reagent.
With B1, the specificity ELISA, fold over background (fold over background) is 1.3 and the specificity ELISA, percent binding relative to Acro S1 worked out at 4.3%.

In the case of B2, the specificity ELISA, fold over background (fold over background) amounted to 1.8 and the specificity ELISA, percent binding relative to Acro S1 was 109%.

B3 returned a specificity ELISA, fold over background (fold over background) of 1.5 and a specificity ELISA, percent binding relative to Acro S1 of 13.1%.

Regarding B4, the specificity ELISA, fold over background (fold over background) came to 1.4 and the specificity ELISA, percent binding relative to Acro S1 is 138%.

B5 displayed a specificity ELISA, fold over background (fold over background) of 1.6 and a specificity ELISA, percent binding relative to Acro S1 of 108%.

As for B6, the specificity ELISA, fold over background (fold over background) amounted to 1.1 and the specificity ELISA, percent binding relative to Acro S1 worked out at 113%.

Consider B7, for which the specificity ELISA, fold over background (fold over background) amounted to 1.7 and the specificity ELISA, percent binding relative to Acro S1 was found to be 9.8%.
